Data from patent publication US20180236071A1 (ACTICOR BIOTECH, published 2018).
Substitutions are numbered along the chain they refer to.

What was measured:
Soluble GPVI-Fc = molecular target: T1, Soluble GPVI-Fc (human, UniProt Q9HCN6 21-269); assay: SPR, BIAcore 2000, GPVI-Fc immobilised, Fab in flow, PBS pH 7.4
T1 construct: also called soluble human GPVI
T1 chain: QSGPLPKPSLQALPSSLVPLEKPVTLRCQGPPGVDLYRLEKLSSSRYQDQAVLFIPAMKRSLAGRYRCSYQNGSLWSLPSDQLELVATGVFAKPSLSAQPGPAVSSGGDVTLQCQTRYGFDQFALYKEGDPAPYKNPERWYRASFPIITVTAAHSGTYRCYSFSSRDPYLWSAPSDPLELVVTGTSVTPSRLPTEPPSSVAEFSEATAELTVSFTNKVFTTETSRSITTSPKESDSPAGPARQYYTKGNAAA
Procedure: Soluble GPVI-Fc (produced as described in Example 2) was immobilized in acetate buffer 10 mM pH 6 at a dose ranging from 960 to 1071 RU (corresponding about 6.4 to 7.15 fmol/mm²) onto a Carboxy-Methyl Dextran CMS sensor chip using the amine coupling method (Wizard procedure). The protein is then passed over the immobilized GPVI-Fc in PBS pH 7.4 (10 mM phosphate, 138 mM NaCl, 2.7 mM KCl, pH 7.42 at 25.4° C.) at a flow rate of 20 μL/min at 25° C. Kinetic constants (KA, KD, kₒₙ, koff) and affinity are determined using BIAevaluation version 3.0 software, by fitting data to binding model. PBS pH 7.4 is the running buffer.

murine GPVI = molecular target: T2, murine GPVI (mouse, UniProt P0C191 22-265, limits assumed); assay: not described
T2 construct: also called mouse GPVI
T2 sequence (looked up): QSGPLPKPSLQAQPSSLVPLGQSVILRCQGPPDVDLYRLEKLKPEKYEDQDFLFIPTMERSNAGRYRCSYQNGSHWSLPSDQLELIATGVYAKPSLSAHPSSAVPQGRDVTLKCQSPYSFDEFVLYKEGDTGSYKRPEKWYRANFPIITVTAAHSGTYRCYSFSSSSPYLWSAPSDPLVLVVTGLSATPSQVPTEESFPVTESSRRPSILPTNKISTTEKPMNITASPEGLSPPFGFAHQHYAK

[1] = molecular target: T3, human Glycoprotein VI (GPVI) on platelets (human, UniProt Q9HCN6 21-339); assay: cell-based or functional assay
T3 chain: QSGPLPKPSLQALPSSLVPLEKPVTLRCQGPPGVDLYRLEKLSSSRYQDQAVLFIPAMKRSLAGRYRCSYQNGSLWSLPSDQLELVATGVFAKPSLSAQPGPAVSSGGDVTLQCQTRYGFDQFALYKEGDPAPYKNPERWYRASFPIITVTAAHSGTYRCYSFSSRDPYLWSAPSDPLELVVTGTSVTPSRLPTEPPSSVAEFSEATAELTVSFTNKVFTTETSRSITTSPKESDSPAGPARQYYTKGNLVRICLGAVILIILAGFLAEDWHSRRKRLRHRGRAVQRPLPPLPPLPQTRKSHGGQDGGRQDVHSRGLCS

B1: ACT006 antibody (humanized Fab fragment) (Fab, V domains shown)
VH: QVQLVQSGAEVKKPGASVKVSCKASGYTFTSYNMHWVRQAPGQGLEWMGGIYPGNGDTSYNQKFQGRVTMTRDTSTSTVYMELSSLRSEDTAVYYCARGTVVGDWYFDVWGQGTLVTVSS
VL: DIQMTQSPSSLSASVGDRVTITCSASQSLENSNGNTYLNWYQQKPGKAPKLLIYRVSNRFSGVPSRFSGSGSGTDFTLTISSLQPEDFATYYCLQLTHVPWTFGQGTKVEIKR
B1 showed a Ka (Soluble GPVI-Fc) of 1.4e+08 M⁻¹, a Kd (Soluble GPVI-Fc) of 7.3 nM and a koff (Soluble GPVI-Fc) of 0.000476 s⁻¹. The kon (Soluble GPVI-Fc) was 66500 M⁻¹ s⁻¹.

B2: ACT017 antibody (humanized Fab fragment) (Fab, V domains shown)
VH: B1 VH
VL: B1 VL with S24R, A25S, L78F, F88I, K112T
notes: Coupled to Alexa488 for the flow cytometry assay; also called ACT17; humanized Fab ACT017
With B2 the binding result (murine GPVI) was “no binding”, the “mean IC50, intensity of collagen-induced platelet aggregation” value [1] was 3.2 µg/mL and the “mean IC50, velocity of collagen-induced platelet aggregation” value [1] was 2 µg/mL. It also gave a Ka (Soluble GPVI-Fc) of 2.57e+08 M⁻¹, a Kd (Soluble GPVI-Fc) of 4.1 nM and a koff (Soluble GPVI-Fc) of 0.000232 s⁻¹. It also gave a kon (Soluble GPVI-Fc) of 59700 M⁻¹ s⁻¹.
